Data reported in US20210002358A1 (Janssen / Centocor, published 2021).

Target: T1, soluble tau (control tau, recombinant 2N4R tau, SEQ ID NO: 31) (human, UniProt P10636 2-758)
T1 construct: also called Sol-tau; recombinant WT tau
Assay: direct ELISA on 2N4R Tau coated at 1 ng/mL
Method: Binding to recombinant WT (2N4R; SEQ ID NO:31) tau was analyzed by ELISA where full-length Tau protein (1 ng/mL or 10 ng/mL) was directly coated to the plate and incubated with different concentrations of either recombinantly- or hybridoma produced PT82 antibody (FIG. 2). After incubation with antibodies, plates were again washed and 50 μL per well of HRPO labelled anti-mouse antibody (GE Healthcare) (diluted 1:10000 in blocking buffer) was added. After another washing step detection was performed with “One step” TMB (Thermo Scientific) according to the manufacturers' instructions. Plates were analysed in EnVision® 2102 Multilabel Reader (Perkin Elmer, Waltham, Mass., USA). Binding curves were generated using GraphPad Prism7.0 software. […] No substantial difference has been observed between binding profiles of recombinant and hybridoma produced antibodies.

T1 sequence (P10636 other isoform, or with tags, fused parts or gaps limits assumed): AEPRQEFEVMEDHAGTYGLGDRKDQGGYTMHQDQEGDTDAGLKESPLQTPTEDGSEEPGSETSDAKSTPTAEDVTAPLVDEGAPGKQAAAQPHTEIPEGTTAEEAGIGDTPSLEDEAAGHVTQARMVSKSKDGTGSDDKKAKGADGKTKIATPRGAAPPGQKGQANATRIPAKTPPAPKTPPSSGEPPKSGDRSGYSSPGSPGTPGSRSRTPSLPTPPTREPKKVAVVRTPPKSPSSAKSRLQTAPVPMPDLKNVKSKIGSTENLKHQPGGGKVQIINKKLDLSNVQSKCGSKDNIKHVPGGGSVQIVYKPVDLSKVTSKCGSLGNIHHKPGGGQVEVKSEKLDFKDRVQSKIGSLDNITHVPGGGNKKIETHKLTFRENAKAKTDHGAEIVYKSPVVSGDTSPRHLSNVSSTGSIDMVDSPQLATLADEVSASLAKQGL

B1: PT82 mAb (recombinantly expressed, mouse IgG2a/kappa) (antibody, V domains shown)
VH: EVKLEESGGGLVQPGGSMKLSCVASGFTFSNYWMNWIRQSPEKGLEWVAQIRLQSDNYATRYAESVKGRFTISRDESKTSVYLQMNNLRTEDTGIYYCTGGTTYWGQGTLVTVSA
VL: DIVMTQSQKFMSTSVGDRVSITCKASQNVGTAVAWYQQKPGQSPKLLIYSASIRYTGVPDRFTGSGSGTDFTLTINYMQSEDLADYFCQQFSSYPYTFGGGTKLEIK
notes: also called recombinant PT82; mouse PT82
For B1, the “EC50 (read off the curve)” value was about 0.04 µg/mL.
